{"source": "patent US20260035452A1", "about": "(THE UNIVERSITY OF BIRMINGHAM, priority 2022, published 2026)", "molecules": {"B1": {"name": "IL-17: recombinant mouse IL-17 purchased from R&D System; full-length cytokine used as comparator and stimulus (protein, UniProt Q62386 26-158, looked up)", "Interleukin-17A": "AAIIPQSSACPNTEAKDFLQNVKVNLKVFNSLGAKVSSRRPSDYLNRSTSPWTLHRNEDPDRYPSVIWEAQCRHQRCVNAEGKLDHHMNSVLIQQEILVLKREPESCPFTFRVEKMLVGVGCTCVASIVRQAA"}}, "key": {"[1]": {"tested_on": "NIH-3T3 mouse embryonic fibroblast cells", "assay": "IL-6 secretion by NIH-3T3 fibroblasts (Elisa)", "type": "cell-based", "settings": "NIH-3T3 cells, 50 ng/ml, vs control / IL-17 group", "procedure": "FIG. 2: NIH-3T3 mouse embryonic fibroblast cells were treated with IL-17 vehicle (Ctrl), IL-17 (50 ng/ml) alone (IL-17) or peptide (FM-0410) (50 ng/ml) and supernatants were assayed by Elisa for IL-6. Data were expressed as pg/ml and presented as means±S.D. of three separate independent experiments. Statistical analysis was conducted by one-way ANOVA followed by Bonferroni's for multiple comparisons. ^##P≤0.01, ^###P≤0.005 vs Ctrl group; *P≤0.05 vs IL-17 group. In order to assess the biological activity of synthesized peptide, we carried out in vitro studies using NIH-3T3 mouse embryonic fibroblast cells. […] With this in vitro system we measured IL-17 activity by its ability to induce IL-6 secretion by NIH-3T3 mouse embryonic fibroblast cells. Methods: The levels of IL-6 in the cellular and air pouch inflammatory supernatants at 24 h were measured using commercially available enzyme-linked immunosorbent assay kit (ELISA kit, R&D System, Milan, Italy) according to the manufacturer instructions. […] The addition of 100 μl of the substrate and stop solution represented the last steps before the reading of absorbance (measured at 450 nm) on a microplate reader. Antigen levels in the samples were determined using a standard curve and expressed as pg/ml. […]"}, "neutrophils": {"tested_on": "neutrophils", "assay": "Transwell chemotaxis assay", "type": "cell-based, human", "procedure": "The cells migration after IL-17 (10-500 ng/ml), FM-0410 (10-500 ng/ml) or N-Formylmethionine-leucyl-phenylalanine (fmlp; 10^−6 M) treatment was quantified using CountBright™ Absolute Counting Beads. Data were presented as means±S.D. of n=3 healthy donors. Statistical analysis was conducted by one-way ANOVA followed by Bonferroni's for multiple comparisons. ^#P≤0.05, ^##P≤0.01, ^###P≤0.001, ^####P≤0.0001 vs Ctrl group; ^+P≤0.05 vs IL-17. Neutrophil isolation: Blood was taken according to local research ethics committee approval (QMERC2014/61). Informed consent was provided according to the Declaration of Helsinki. All blood samples were collected on the day of experiments from healthy donors and immediately used. Each condition has 3 biological replicates (3 different donors). Neutrophils were isolated using a double density histopaque gradient and hypotonic lysis as described previously. Transwell chemotaxis assay: Chemotaxis was assessed using a transwell assay. […] After 2 hours at 37° C., neutrophils were collected from the bottom wells and quantified by flow cytometry using CountBright™ Absolute Counting Beads (Thermofisher, Rugby, UK) as previously described."}, "[2]": {"tested_on": "hPBMC on cytokine-stimulated HDBEC monolayers", "assay": "Human PBMC static adhesion / transendothelial migration assay", "type": "cell-based", "settings": "co-treatment plus TNF-α", "procedure": "FIG. 10: Human dermal blood endothelial cells (HDBEC) were treated with: IL-17 vehicle (Ctrl), IL-17 or FM-0410 (100 ng/ml), alone or in combination with TNF-α (100 U/ml) for 24 h. Cells were washed, gated in their totality and singlet before the identification of IL-17Rs (RA and RC) (A, B), ICAM (C) and VCAM (D) expression. Histogram values (expressed as MIF) indicate the total positive cells (A-D). In (E) are shown phase-contrast micrographs of confluent monolayers of untreated or treated (as reported before) HDBEC. Total adhesion (expressed as INT/mm^2, F) and % of transmigration (G) are calculated with Image Pro programme (DataCell, Finchampstead). Inflammatory supernatants from all experimental conditions were assayed by Elisa for IL-6 (H) expressed in pg/ml. Data were presented as means±S.D. of n=3 healthy donors. […]\nHuman PBMC transendothelial migration assay: Prior to beginning the assay, HDBEC monolayers were washed with 37° C. medium 199 (Thermo Fisher Scientific) supplemented with 0.15% w/v BSA (MilliporeSigma) to remove any residual cytokines. hPBMC (1×10^6) were co-cultured with cytokine-stimulated HDBEC monolayers at 37° C. for 20 min. […] Total hPBMC adhesion and mean percentage transmigration were calculated for each well."}, "dorsal air pouch of mice": {"tested_on": "dorsal air pouch of mice", "settings": "single administration 1 μg/pouch into 6-day old air pouch; previous studies; cited from earlier work"}}}
{"molecule": "B1", "values": [{"measurement": "IL-6 release", "setting": "[1]", "value": "significant increase in IL-6 release compared to control group"}, {"measurement": "chemotactic activity compared to positive control fmlp (10^−6 M)", "setting": "neutrophils; 500 ng/ml", "value": "almost similar to positive control fmlp"}, {"measurement": "chemotactic effect on neutrophils", "setting": "neutrophils; 10-500 ng/ml, vs Control group", "value": "concentration-dependent chemotactic effect"}, {"measurement": "total number of adhered hPBMC", "setting": "[2]", "value": "significant increase"}, {"measurement": "transmigrated hPBMC", "setting": "[2]", "value": "significant increase"}, {"measurement": "time of peak of leukocyte infiltration", "setting": "dorsal air pouch of mice", "value": 24, "unit": "h"}]}
